{
  "source": "paper PMC4837482",
  "about": "“The complex binding mode of the peptide hormone H2 relaxin to its receptor RXFP1” (Nature Communications, 2016)",
  "assay_in_all_cases": "cAMP activity assay (pCRE β-galactosidase reporter), transfected HEK293T cells",
  "assay_type_in_all_cases": "cell-based",
  "key": {"RXFP1 S47L48-AA": {"molecular_target": "T1, RXFP1 S47L48-AA (Homo sapiens, UniProt Q9HBX9, L70A/S69A)", "T1 construct": "expressed in transfected cells; host or cells: HEK293T", "T1 sequence (Q9HBX9 23-757 S69A/L70A limits assumed)": "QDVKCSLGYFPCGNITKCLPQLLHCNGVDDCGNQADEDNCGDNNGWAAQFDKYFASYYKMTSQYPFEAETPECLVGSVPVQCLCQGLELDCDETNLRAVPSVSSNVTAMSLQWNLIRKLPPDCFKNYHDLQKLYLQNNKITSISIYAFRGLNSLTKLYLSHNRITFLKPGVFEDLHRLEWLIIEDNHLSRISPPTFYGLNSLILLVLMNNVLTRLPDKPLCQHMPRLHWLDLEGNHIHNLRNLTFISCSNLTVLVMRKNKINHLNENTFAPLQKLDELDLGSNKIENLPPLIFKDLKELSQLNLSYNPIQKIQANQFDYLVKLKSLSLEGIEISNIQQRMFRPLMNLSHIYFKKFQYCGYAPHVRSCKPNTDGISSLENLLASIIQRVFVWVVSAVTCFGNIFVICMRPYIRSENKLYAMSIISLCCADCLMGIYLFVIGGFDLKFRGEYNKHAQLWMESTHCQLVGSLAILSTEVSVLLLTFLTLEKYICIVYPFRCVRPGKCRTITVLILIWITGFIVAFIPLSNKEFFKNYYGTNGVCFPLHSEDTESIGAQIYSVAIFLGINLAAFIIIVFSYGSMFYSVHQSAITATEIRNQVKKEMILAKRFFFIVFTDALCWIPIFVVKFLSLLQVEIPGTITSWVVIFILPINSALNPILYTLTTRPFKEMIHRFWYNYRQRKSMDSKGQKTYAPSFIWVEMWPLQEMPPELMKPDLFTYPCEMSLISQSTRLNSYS", "conditions": "construct S47L48-AA, ±s.e.m.", "outline": "(§1)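 HEK293T cells transfected with mutant RXFP1 and pCRE β-galactosidase reporter, stimulated with H2 relaxin in minimal media/1% DMSO. β-Galactosidase read with chlorophenol red-β-D-galactopyranoside at 570 nm; responses pooled from ≥3 triplicate experiments as % of 5 μM forskolin maximum.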"}, "RXFP1 Y57A": {"molecular_target": "T2, RXFP1 Y57A (Homo sapiens, UniProt Q9HBX9, Y79A)", "T2 construct": "cells expressing full-length RXFP1 and mutants; expressed in transfected cells; host or cells: HEK293T", "T2 sequence (Q9HBX9 23-757 Y79A limits assumed)": "T1 sequence (Q9HBX9 23-757 S69A/L70A limits assumed) with A47S, A48L, Y57A", "conditions": "construct Y57A, ±s.e.m.", "outline": "as §1"}, "RXFP1 F50A^ins": {"molecular_target": "T3, RXFP1 F50A^ins (Homo sapiens, UniProt Q9HBX9, INS72A)", "T3 construct": "transiently transfected human embryonic kidney (HEK) 293T cells expressing full-length RXFP1 and mutants; expressed in transfected cells; host or cells: HEK293T", "T3 sequence (Q9HBX9 with tags, fused parts or gaps INS72A limits assumed)": "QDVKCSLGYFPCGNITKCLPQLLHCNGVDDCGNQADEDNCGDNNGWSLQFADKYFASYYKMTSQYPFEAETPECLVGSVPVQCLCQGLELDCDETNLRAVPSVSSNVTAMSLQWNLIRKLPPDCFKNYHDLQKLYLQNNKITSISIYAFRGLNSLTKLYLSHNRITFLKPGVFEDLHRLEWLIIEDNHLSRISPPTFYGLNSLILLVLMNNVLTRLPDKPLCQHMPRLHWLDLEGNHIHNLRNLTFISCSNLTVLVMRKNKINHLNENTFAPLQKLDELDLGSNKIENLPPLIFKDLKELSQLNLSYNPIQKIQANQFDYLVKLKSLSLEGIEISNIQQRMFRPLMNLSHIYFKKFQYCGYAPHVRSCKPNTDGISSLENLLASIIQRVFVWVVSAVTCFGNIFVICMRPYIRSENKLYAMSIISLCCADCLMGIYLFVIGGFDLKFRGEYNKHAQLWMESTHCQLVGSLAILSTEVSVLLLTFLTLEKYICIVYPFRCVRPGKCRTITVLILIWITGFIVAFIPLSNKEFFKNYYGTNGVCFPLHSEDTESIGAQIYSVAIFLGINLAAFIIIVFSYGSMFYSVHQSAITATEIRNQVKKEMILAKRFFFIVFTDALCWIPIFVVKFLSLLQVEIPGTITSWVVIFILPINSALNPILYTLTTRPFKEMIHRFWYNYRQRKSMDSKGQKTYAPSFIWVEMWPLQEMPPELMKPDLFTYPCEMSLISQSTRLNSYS", "conditions": "construct F50A^ins, ±s.e.m.", "outline": "as §1"}, "[1]": {"conditions": "percentage of maximum response to 5 μM Forskolin"}},
  "note": "Where a chain is given by its changes, count along the chain named.",
  "data": [
    {"substance": "H2 relaxin: two-chain 6-kDa peptide hormone structurally related to insulin; recombinant human gene-2 H2 relaxin provided by Corthera", "values": [
      {"measurement": "H2 relaxin pEC50", "setting": "RXFP1 S47L48-AA; cAMP reporter", "value": "11.07±0.17 (3)"},
      {"measurement": "H2 relaxin Emax", "setting": "RXFP1 S47L48-AA; [1]", "value": "120.9±10.9 (3) %"},
      {"measurement": "H2 relaxin pEC50", "setting": "RXFP1 Y57A; cAMP reporter", "value": "10.93±0.10 (5)"},
      {"measurement": "H2 relaxin Emax", "setting": "RXFP1 Y57A; [1]", "value": "126.7±8.46 (5) %"},
      {"measurement": "H2 relaxin pEC50", "setting": "RXFP1 F50A^ins; cAMP reporter", "value": "9.41±0.13 (3)"},
      {"measurement": "H2 relaxin Emax", "setting": "RXFP1 F50A^ins; [1]", "value": "93.62±5.34 (3) %"}
    ]}
  ]
}
